The source of these data is a protein production outcome set (Wang et al. 2014).
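Also: failed if final PepcDB status was selected cloned or expressed and not failed if soluble or beyond.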

The nature of this series: label from the status in PepcDB records.
Regarding “MKTITTTKSPTVKDYIDAYLIERKYCAAPSTLASDLSRAKNINEALGEFPINAVSHTQINMLLVSWHERFRNKTINEHLTILRRISLKAVRDGVIARNPMTGVQNFKTVDPEPNPFTKKELARMHECKNVCTQGQNAVMLNLLTGLRISELIALSWQDINWEREVLYVRRACVLNIYKCPKTKGSVREVDLNPLALKLLKEQLKLTGKRRPQTINILECDNKTFTKDSVSFIFLNTKTNQPFTDAKEFTERFFIKFLEQAGVAHRGVGQLRHTFASQCLTTGISKDWLAVQMGHKSTTMIDKHYGRWIREDSPNYAREAAQHLQDIFGLPQIKPTVTLPAVPHSSLVLLKKLQSKPQLIQLLEGMLESDR”, the protein production entry is recorded as “failed”.

With “MISGSATASHGRVLLPSQRERRPVSTGSNILRFRETVPRQFSLMMVTKATAKYMGTKMREEKLSEMIEEKVKEATEVCEAEEMSEECRVAWDEVEEVSQARADLRIKLKLLNQDPLESFCQENPETDECRIYED”, the protein production entry is “failed”.

On to “MQYIFSIISGIIVGFSLGLIGGGGSILAIPLLIYFVGIKNPHLVIGTTALAVGINALINVYSHLRKKNVSLRTGAIFTVFGILGVLLGTTLGLITPGGKLLFLFSFLMIVIGAYMFITKCKTCKNYDAIPKKNNNDDPPDPPKKGLWQKIKLEVFGVLAGFASGYFGIGGGFLIVPALLYSADITMNLAVGTSLMSVGTFGLVTALRYGIAGKVLVTIALLYVLGGIFGGYAGAKLSSSMKRSTLRRFFSLIIIVVGIYMAIESFSAVF”, for which the protein production result is listed as “failed”.

Turning to “MTKIIPVASGKGGVGKTSFVANVGYKLSSLGKTVILVDLDLGGSNLHTCLGVKNKGVGIGSFINKKSKSFSDLVCKTSYDKLYLIPGDALYTGTANLPFSIKKKIIESIQKDLIADFIFLDLGSGTSYNTIDFYLASYSGVIVTIPETPSILNAYSFLKNALYRLLYLGFPQKSPERDYIGNFFKDKIEGTNLGFKDLVVGIELISLSSSLKVKRMMNNFYPRVVLNRIETSEEIAMCENLINVVKNNINIPIEFIGFVPFAKSFREAINNRVPFIDFEKNSKLNKYFEFIAGNLIKSP”, the protein production result was “failed”.

With “MSAYPPGAAPSDPVDPVTLEAGQTAKVTRPTGRFMLGHPARLIALGFGSGLSPVSPGTVGTLLGWLSFIVISKWIDPTTWLWIIAGGFVIGIWACLRTARDMGVYDHGSMVWDEIVAFWLVLLFVMPTGFWGQFAAFVWFRFFDIVKPAPIRYYDRTLKGPGFTGAFGVMFDDIFAAFYTLLVFALWRSI”, the protein production result is “failed”.

Regarding “MTASLEIRPFQETDLDFVRQLARQEDFAPGIGDIAIYANTANQGVWLAWQGDMPVGCIAAVKYNLDYGFMGLFVVHPDHRGGGVGRQLWDHALALLADVTCIGLEAAPSMVEFYQRQGFRKDSITTRRQHLRLEESSQHPTRRLLHRNDITIVPLKAISLDAVQAYDERHEISPRPHFLQQWLNHQAGDVFVAMDGSHQCHGYVRIRPCLLPIGQGWRIGPLLAEEPGIASLLLSNAMDRHKGIILIDTPGHNRSARTVAGAKGFRRMGATHRMYKGDLDNGHDQNIYGLACLELG”, the protein production entry is “failed”.

Turning to “QVKRQTRRVASATYMVSLLDSQIDSPATLFIDEQALEAAKRRSYQRGVLEGSEMSRVFSWMRPNDLIWTYWINNYLLGKSPPPFDILYWNNDTTRLPAALHGDLLDFFKHNPLSHAGGLEVCGTPIDLQKVTVDSFSVAGINDHITPWDSVYRSTLLLGGDRRFVLANSGHVQSILNP”, the protein production entry was “not failed”.

As for “SPAYQEDREEDTCTIGEREKTIATQRIKGFGVENPVLPESPPASMSSVMKNNPLYGDITLEEAMEERKKSPSWTIEEYDKHSVHTNLSGHLKENPNDLRFWLGDTYTPGFDTLLKKKKKRNKRSKLCHMGLILLLVASILVTIVTLSTIFS”, the protein production result is given as “failed”.

On to “METQKTQAENPPKPATSSCRKKTKDDANFLEDVKDHIDDFINASMDDHKNCFNKTIKKMFGLSKAVADKQQSEAKGGVESYLPLQTTVSD”, for which the protein production entry is on record as “failed”.

Turning to “MPKKGSDPVWCVVMFDLPVKTKTQRKQATAFRQNLLDLGFCMAQLSVYVQYLPLAAKLSNLVKLIKEKLPPGGDVRILSVSDIQWSKMIRFSSSAEVSGEEKPDQLAIFLEHHHHHH”, the protein production entry was “not failed”.

With “MSYILIVTIAIVIFSLIFDFINGFHDTANAVATAVSTRALTPRRAILLAAVMNFIGALTFTGVAGTITKDIVDPFKLQHGLVVVLAAIIAAIIWNLITWLYGIPSSSSHALIGSIAGAAIASKGSFAVLHYQGFTKIIIVLIISPIIAFCVGYMMYTIVKIVFKNSNLTRTNRNFRFFQIFTAALQSFSHGTNDAQKSMGIITLALIVGNLQDGSNVEPQVWVKVVCATAMGLGTAVGGWKIIKTVGGNIMKIRPANGAAADISSALTIFVASSLHFPLSTTHVVSSSILGVGASNRAKGVKWSTAQRMVVTWVITLPISAVLAAIIYFIIHLFLK”, the protein production entry is listed as “failed”.

With “MPAGAVRRRLGRRAGGWENGGMSDSSPARPAAPVLDVWCELQCPDCHTALDDVRALRARYGDRLEVRLRHFPLEKHKYAFAAAQAAEEAVAQGRGWPYAEAVLDRVAELDRKGEPFLVEVARELGLDAEEFDTALIDGRHILIVDADQAEGKAIGVTGTPTYVIGGERLDGGKSQDGLRERIEEIADRLLAQPRD”, the protein production result is given as “failed”.

Take “MSDAQLGPLRLTLLSVSARTGFCKKQQELWQRRKEAAEALGTRKVSVLLATSHSGARPAVSTMDSSAAPTNASNCTDALAYSSCSPAPSPGSWVNLSHLDGNLSDPCGPNRTDLGGRDSLCPPTGSPSMITAITIMALYSIVCVVGLFGNFLVMYVIVRYTKMKTATNIYIFNLALADALATSTLPFQSVNYLMGTWPFGTILCKIVISIDYYNMFTSIFTLCTMSVDRYIAVCHPVKALDFRTPRNAKIINVCNWILSSAIGLPVMFMATTKYRQGSIDCTLTFSHPTWYWENLLKICVFIFAFIMPVLIITVCYGLMILRLKSVRMLSGSKEKDRNLRRITRMVLVVVAVFIVCWTPIHIYVIIKALVTIPETTFQTVSWHFCIALGYTNSCLNPVLYAFLDENFKRCFREFCIPTSSNIEQQNSTRIRQNTRDHPSTANTVDRTNHQVRSL”: the protein production entry was “failed”.

Consider “MVIETGVWIVLLGATVTAVATGLGALPFLFVRDIGDWWLGVFNAAAGGLMLAASHSLITEGSMLSTGRTLIGILVGLALILGANTFISRGDDHDVAELAGADARKALLILGIMTAHSFAEGVGVGVSYGGGDELGAFITAAIAVHNIPEGLAISLVLVPRGTPLWKAAGWSIFTSLPQPLMAVPAFLFVLVFEPFLPIGFGLAAGAMIWMVFAELIPDALEDVPGPTAGAAVTLAFAALFAFQHFVLHV”, for which the protein production result is given as “failed”.

On to “MSEPVSSATVLAGGLMGASVFGLATGTDYGVVFGAFAGSVFYVATATNIGRIRLVAYFITSFIVGVLGAGLIGTKLAAITHYEKPLDALGAVIISAMCIKFLTFLNSQDLNTLFSILSRIRGGGSDGSK”, for which the protein production result is recorded as “failed”.

“MLKYSNHMAFKDLREYIEFMKKKGKLIEVDDEVSVDLEIAEITRKATYAHLPPLLFKRVKNYENWKIVSNIFYSIESLYEIFGTNKLESISEGFLSNLSNMPITFFDKIKSLREILGLGKVMPKAKSPSFKEEKNLDLTKIPAIKTWPKDAGRYLTFSITITKDPETDVHNLSVYRVQILNEKEAIIHWQAFKRGALTAKKYLEKGISKIPIAVVTGVDPAIAFTAASPVPHGIDKYMFAGILRGEGIDVAELDNQLLVPSHSEVVLTGYVDLNDMRLEGPFGDHMGYYTPADYYPVFKLERVYIREDPIFHVTSVGKPPLEDAWIGKAVERIFLPFAKMLVPELIDMNLPEYGLFTGIGIFSIKKYYPGQAKRVMMALWGTGQLSLLKIIIVVDQDIDVHDINQVIYAIAANVDPKRDVWVIENALTDSLDPSVPFPPLGSKLGIDATRKFKEEMGKEWPEEVRSDEVVAKKADQILNKIIKRYQTSLEHHHHHH”: the protein production result is reported as “failed”.

“MNKRNTQQRRHSIISILNEQGEVSVDELSLRFETSEVTIRKDLAELEKTGLLLRRYGGAVAIPDEVTQQFSAKIAPNKLSIAKAAAQLIKDHNRIIIDSGTTTSGLIAELNQKRGLVVMTNALHLANAIHELENEPTLLMTGGTWDPHSESFQGQVAEQVLRSYNFDQLFIGADGIDLARGTTTFNELTGLSKVMAEVSREVIVMVDSDKIGKRIPNLELPWSKISVLVTDARIEESALKQITEQGVKVILAPYSP”: the protein production result was “failed”.
